B1: CD19/CD20 bispecific CAR (Leu16 scFv-(G4S)4-FMC63 scFv-IgG4 hinge-CD28 TM-4-1BB-CD3 zeta) (other)
chain: DIVLTQSPAILSASPGEKVTMTCRASSSVNYMDWYQKKPGSSPKPWIYATSNLASGVPARFSGSGSGTSYSLTISRVEAEDAATYYCQQWSFNPPTFGGGTKLEIKGSTSGGGSGGGSGGGGSSEVQLQQSGAELVKPGASVKMSCKASGYTFTSYNMHWVKQTPGQGLEWIGAIYPGNGDTSYNQKFKGKATLTADKSSSTAYMQLSSLTSEDSADYYCARSNYYGSSYWFFDVWGAGTTVTVSSGGGGSGGGGSGGGGSGGGGSEVKLQESGPGLVAPSQSLSVTCTVSGVSLPDYGVSWIRQPPRKGLEWLGVIWGSETTYYNSALKSRLTIIKDNSKSQVFLKMNSLQTDDTAIYYCAKHYYYGGSYAMDYWGQGTSVTVSSGSTSGSGKPGSGEGSTKGDIQMTQTTSSLSASLGDRVTISCRASQDISKYLNWYQQKPDGTVKLLIYHTSRLHSGVPSRFSGSGSGTDYSLTISNLEQEDIATYFCQQGNTLPYTFGGGTKLEITESKYGPPCPPCPMFWVLVVVGGVLACYSLLVTVAFIIFWVKRGRKKLLYIFKQPFMRPVQTTQEEDGCSCRFPEEEEGGCELRVKFSRSADAPAYQQGQNQLYNELNLGRREEYDVLDKRRGRDPEMGGKPRRKNPQEGLYNELQKDKMAEAYSEIGMKGERRRGKGHDGLYQGLSTATKDTYDALHMQALPPR

Columns and labels:
[1] = molecular target: B1; assay: flow cytometry, staining of T cells (donor 1917) transduced with CD19/20 CAR lentiviral vector
Description: Direct Detection of CAR+ cells by Flow Cytometry. Direct measurement was used to detect expression of CD 19/20 CAR. Because quantification of a tEGFR protein may not provide an accurate measurement of surface CAR expression, tEGFR was removed from the Lentiviral vector as described herein, and instead utilized antibodies which bound to the scFv domains of the CD19/20 CAR protein to report surface CAR expression.

[2] = molecular target: T1, CD19 (human, UniProt P15391 20-556); assay: cell-based or functional assay
T1 sequence (looked up): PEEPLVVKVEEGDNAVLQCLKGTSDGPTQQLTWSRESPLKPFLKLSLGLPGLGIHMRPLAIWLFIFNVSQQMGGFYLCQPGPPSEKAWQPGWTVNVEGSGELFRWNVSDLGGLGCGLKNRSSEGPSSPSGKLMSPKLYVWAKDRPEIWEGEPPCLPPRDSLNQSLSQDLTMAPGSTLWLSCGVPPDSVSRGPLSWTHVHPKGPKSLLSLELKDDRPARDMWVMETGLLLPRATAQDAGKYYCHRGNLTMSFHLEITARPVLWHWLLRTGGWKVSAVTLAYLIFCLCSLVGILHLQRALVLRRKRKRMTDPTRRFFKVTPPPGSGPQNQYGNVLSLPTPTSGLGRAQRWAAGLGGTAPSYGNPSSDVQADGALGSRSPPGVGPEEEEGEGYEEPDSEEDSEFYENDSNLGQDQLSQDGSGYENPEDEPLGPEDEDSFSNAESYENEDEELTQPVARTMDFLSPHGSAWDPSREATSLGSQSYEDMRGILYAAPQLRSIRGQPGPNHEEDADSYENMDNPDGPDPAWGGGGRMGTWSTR

Binder | % Positive Cells [1] [%] | IFN-γ and IL-2 production, 1:1 effector:target cell ratio or greater, 24 hours, target cells lacking CD20 [2]
CD20 Protein-Biotin (Acros) (other, UniProt P11836 1-297, looked up, biotin (site not stated), Bought detection reagent; construct not described) MTTPRNSVNGTFPAEPMKGPIAMQSGPKPLFRRMSSLVGPTQSFFMRESKTLGAVQIMNGLFHIALGGLLMIPAGIYAPICVTVWYPLWGGIMYIISGSLLAATEKNSRKCLVKGKMIMNSLSLFAAISGMILSIMDILNIKISHFLKMESLNFIRAHTPYINIYNCEPANPSEKNSPSTQYCYSIQSLFLGILSVMLIFAFFQELVIAGIVENEWKRTCSRPKSNIVLLSAEEKKEQTIEIKEEVVGLTETSSQPKNEEDIEIIPIQEEEEEETETNFPEPPQDQESSPIENDSSP | 68.1 | 
B1 |  | > 1000
